Molecular target: GST-HC-Pro^K (HC-Pro of turnip mosaic virus, FRNK motif mutated to FKNK) (turnip mosaic virus (TuMV))
Assay: pull-down; 2 μg bait (GST-HC-Pro^R or GST-HC-Pro^K) and 2 μg prey (his-AtHEN1) in 50 mM Tris-HCl pH 7.5, 100 mM NaCl, 0.2% glycerol, 0.6% Triton X-100, 0.5 mM β-mercaptoethanol; 25 °C, 2 h; Glutathione Sepharose 4B; blot with α-His or α-GST

B1: his-AtHEN1 (recombinant full-length Arabidopsis HEN1) (enzyme)
chain: MAGGGKHTPTPKAIIHQKFGAKASYTVEEVHDSSQSGCLGLAIPQKGPCLYRCHLQLPEFSVVSNVFKKKKDSEQSAAELALDKLGIRPQNDDLTVDEARDEIVGRIKYIFSDEFLSAEHPLGAHLRAALRRDGERCGSVPVSVIATVDAKINSRCKIINPSVESDPFLAISYVMKAAAKLADYIVASPHGLRRKNAYPSEIVEALATHVSDSLHSREVAAVYIPCIDEEVVELDTLYISSNRHYLDSIAERLGLKDGNQVMISRMFGKASCGSECRLYSEIPKKYLDNSSDASGTSNEDSSHIVKSRNARASYICGQDIHGDAILASVGYRWKSDDLDYDDVTVNSFYRICCGMSPNGIYKISRQAVIAAQLPFAFTTKSNWRGPLPREILGLFCHQHRLAEPILSSSTAPVKSLSDIFRSHKKLKVSGVDDANENLSRQKEDTPGLGHGFRCEVKIFTKSQDLVLECSPRKFYEKENDAIQNASLKALLWFSKFFADLDVDGEQSCDTDDDQDTKSSSPNVFAAPPILQKEHSSESKNTNVLSAEKRVQSITNGSVVSICYSLSLAVDPEYSSDGESPREDNESNEEMESEYSANCESSVELIESNEEIEFEVGTGSMNPHIESEVTQMTVGEYASFRMTPPDAAEALILAVGSDTVRIRSLLSERPCLNYNILLLGVKGPSEERMEAAFFKPPLSKQRVEYALKHIRESSASTLVDFGCGSGSLLDSLLDYPTSLQTIIGVDISPKGLARAAKMLHVKLNKEACNVKSATLYDGSILEFDSRLHDVDIGTCLEVIEHMEEDQACEFGEKVLSLFHPKLLIVSTPNYEFNTILQRSTPETQEENNSEPQLPKFRNHDHKFEWTREQFNQWASKLGKRHNYSVEFSGVGGSGEVEPGFASQIAIFRREASSVENVAESSMQPYKVIWEWKKEDVEKKKTDL
fold pull-down signal: 0.2 to 0.3 fold

From PMC8473176
